In PMC5906480, “Tau Antibody Structure Reveals a Molecular Switch Defining a Pathological Conformation of the Tau Protein” (Scientific Reports, 2018):

How the values were obtained:
[1] = test system: FITC-conjugated non-phosphorylated tau peptide; experiment: Fluorescence polarization direct binding, non-phosphorylated peptide; settings: Fab C5.2 675 nM to 0.08 nM; FITC-peptide 300 nM; 25 °C; fluorescence dip around 10 nM Fab due to protein aggregation and fluorophore quenching
Experimental: (§1) FITC-labeled peptides used in fluorescence polarization experiments were synthesized by Biomatik (Cambridge, ON, Canada). Fab C5.2 affinity was determined using a fluorescence polarization-based direct binding assay with fluorescein isothiocyanate (FITC)-conjugated peptides (Table 1). The FITC-peptide concentration was kept constant at 300 nM while Fab C5.2 was serially diluted from 675 nM to 0.08 nM. Data was collected at 25 °C using excitation and emission wavelengths of 485 nm and 535 nm, respectively. Each experiment was done in a single 96-well plate and calculated in triplicate (buffer: 50 mM Tris, 100 mM NaCl, 0.1% pluronic F-127). The experiments were performed with a DTX 880 Multimode Detector (Beckman Coulter, Jersey City, NJ). Fluorescence data was reduced using multimode detection software and KD values were calculated in GraphPad Prism 7.0 using a nonlinear regression model.
(§2) To accurately measure the C5.2 binding affinity, we performed fluorescence polarization experiments to determine dissociation constants (KD), using the Fab C5.2 and four differentially phosphorylated FITC-conjugated peptides (Table 1). The peptide concentration was kept constant while that of Fab C5.2 was serially diluted from 675 nM to 0.08 nM (Fig. 1d). […] In comparison with a […] IgG molecule, each Fab fragment contains a single binding site so the KD was calculated using a nonlinear model.

[2] = test system: FITC-conjugated tau peptide pS404; experiment: Fluorescence polarization direct binding, pS404 peptide; settings: Fab C5.2 675 nM to 0.08 nM; FITC-peptide 300 nM; 25 °C; fluorescence dip around 10 nM Fab due to protein aggregation and fluorophore quenching
Experimental: as §1, §2

[3] = target: FITC-conjugated tau peptide pS396/pS404; experiment: Fluorescence polarization direct binding, pS396/pS404 peptide; settings: Fab C5.2 675 nM to 0.08 nM; FITC-peptide 300 nM; 25 °C; 50 mM Tris, 100 mM NaCl, 0.1% pluronic F-127; ex 485/em 535 nm; triplicate; nonlinear regression
Experimental: as §1, §2

[4] = target: FITC-conjugated tau peptide pS396; experiment: Fluorescence polarization direct binding, pS396 peptide; settings: Fab C5.2 675 nM to 0.08 nM; FITC-peptide 300 nM; 25 °C; 50 mM Tris, 100 mM NaCl, 0.1% pluronic F-127; ex 485/em 535 nm; triplicate; nonlinear regression
Experimental: as §1, §2

B1: Fab C5.2: Fab fragment of C5.2 prepared by papain digestion (antibody, V domains shown)
VH: QVQLQQSDAELVKPGASVKISCKASGYTFTDRTIHWVKQRPEQGLEWIGYIYPGDDSTKYNDMFKAKATLTADKSSNTAYMQLNSLTSDDSAVYFCARRGTMDYWGQGTSVTVSS
VL: DVQMIQSPSSLSASLGDIVTMTCQASQDTSINLNWFQQKPGKAPKLLIYGASNLEDGVPSRFSGSRYGTDFTLTISSLEDEDMATYFCLQHTYLPFTFGSGTKLEIK
[1]
  Recognition of the non-phosphorylated peptide: does not recognize
[2]
  Recognition of peptide pS404: does not recognize
[3]
  Kd: 15.4 nM
[4]
  Kd: 14.9 nM
